Results on ten proteins are retold here after the PETadex activity labels (doi:10.1073/pnas.2006753117).

Substrate in the data set: MHET
Briefly: Proxy for plastic degradation [kcat] (s⁻¹). The following applies: pH 7.5.

B1: unnamed (protein)
chain: MQTTVTTMLLASVALAACAGGGSTPLPLPQQQPPQQEPPPPPVPLASRAACEALKDGNGDMVWPNAATVVEVAAYVPAGVNISMADNPSICGGDEDPITSTFAFCEVSGAIAKRTGIDGYPYEIKFRLRMPAEWNGRFFMEGGSGTNGCLSAATGSIGGGQIASALSRNFATIATDGGHDNAVNDNPDALGTVAFGLDPQARLDMGYNSYDQVTQAGKAAVARFYGRAADKSYFIGCSEGGREGMMLSQRFPSHYDGIVAGAPGYQLPKAGISGAWTTQSLAPAAVGLDAQGVPLINKSFSDADLHLLSQAILGTCDALDGLADGIVDNYRACQAAFDPATAANPANGQALQCVGAKTADCLSPVQVTAIKRAMAGPVNSAGTPLYNRWAWDAGMSGLSGTTYNQGWRSWWLGSFNSSANNAQRVSGFSARSWLVDFATPPEPMPMTQVAARMMKFDFDIDPLKIWATSGQFTQSSMDWHGATSTDLAAFRDRGGKMILYHCMSDAAFSALDTADYYERLGAAMPGAAGFARLFLVPGMNHCCGGPGTDRFDMLTPLVAWVERGEAPDQISAWSGTPGYFGVAARTRPLCPYPQIARYKGSGDINTEANFACAAPP
Turning to B1, the “Proxy for plastic degradation” value worked out at 0.16.

B2: unnamed (protein)
chain: MQTTVTTMLLASVALAACAGGGSTPLPLPQQQPPQQEPPPPPVPLASRAACEALKDGNGDMVWPNAATVVEVAAWRDAAPATASAAALPEHCEVSGAIAKRTGIDGYPYEIKFRLRMPAEWNGRFFMEGGGGTNGSLSAATGSIGGGQIASALSRNFATIATDGGHDNAVNDNPDALGTVAFGLDPQARLDMGYNSYDQVTQAGKAAVARFYGRAADKSYFIGCSEGGREGMMLSQRFPSHYDGIVAGAPGYQLPKAGISGAWTTQSLAPAAVGLDAQGVPLINKSFSDADLHLLSQAILGTCDALDGLADGIVDNYRACQAAFDPATAANPANGQALQCVGAKTADCLSPVQVTAIKRAMAGPVNSAGTPLYNRWAWDAGMSGLSGTTYNQGWRSWWLGSFNSSANNAQRVSGFSARSWLVDFATPPEPMPMTQVAARMMKFDFDIDPLKIWATSGQFTQSSMDWHGATSTDLAAFRDRGGKMILYHGMSDAAFSALDTADYYERLGAAMPGAAGFARLFLVPGMNHCSGGPGTDRFDMLTPLVAWVERGEAPDQISAWSGTPGYFGVAARTRPLCPYPQIARYKGSGDINTEANFACAAPP
Take B2: the “Proxy for plastic degradation” value was 11.

B3: unnamed (protein)
chain: MQTTVTTMLLASVALAACAGGGSTPLPLPQQQPPQQEPPPPPVPLASRAACEALKDGNGDMVWPNAATVVEVAAWRDAAPATASAAALPEHCEVSGAIAKRTGIDGYPYEIKFRLRMPAEWNGRFFMEGGSGTNGSLSAATGSIGGGQIASALSRNFATIATDGGHDNAVNDNPDALGTVAFGLDPQARLDMGYNSYDQVTQAGKAAVARFYGRAADKSYFIGCAEGGREGMMLSQRFPSHYDGIVAGAPGYQLPKAGISGAWTTQSLAPAAVGLDAQGVPLINKSFSDADLHLLSQAILGTCDALDGLADGIVDNYRACQAAFDPATAANPANGQALQCVGAKTADCLSPVQVTAIKRAMAGPVNSAGTPLYNRWAWDAGMSGLSGTTYNQGWRSWWLGSFNSSANNAQRVSGFSARSWLVDFATPPEPMPMTQVAARMMKFDFDIDPLKIWATSGQFTQSSMDWHGATSTDLAAFRDRGGKMILYHGMSDAAFSALDTADYYERLGAAMPGAAGFARLFLVPGMNHCSGGPGTDRFDMLTPLVAWVERGEAPDQISAWSGTPGYFGVAARTRPLCPYPQIARYKGSGDINTEANFACAAPP
Regarding B3, the “Proxy for plastic degradation” value was 0.

B4: unnamed (protein)
chain: MQTTVTTMLLASVALAACAGGGSTPLPLPQQQPPQQEPPPPPVPLASRAACEALKDGNGDMVWPNAATVVEVAAWRDAAPATASAAALPEHCEVSGAIAKRTGIDGYPYEIKFRLRMPAEWNGRFFMEGGSGTNGSLSAATGSIGGGQIASALSRNFATIATDGGHDNAVNDNPDALGTVAFGLDPQARLDMGYNSYDQVTQAGKAAVARFYGRAADKSYFIGCSTGGREGMMLSQRFPSHYDGIVAGAPGYQLPKAGISGAWTTQSLAPAAVGLDAQGVPLINKSFSDADLHLLSQAILGTCDALDGLADGIVDNYRACQAAFDPATAANPANGQALQCVGAKTADCLSPVQVTAIKRAMAGPVNSAGTPLYNRWAWDAGMSGLSGTTYNQGWRSWWLGSFNSSANNAQRVSGFSARSWLVDFATPPEPMPMTQVAARMMKFDFDIDPLKIWATSGQFTQSSMDWHGATSTDLAAFRDRGGKMILYHGMSDAAFSALDTADYYERLGAAMPGAAGFARLFLVPGMNHCSGGPGTDRFDMLTPLVAWVERGEAPDQISAWSGTPGYFGVAARTRPLCPYPQIARYKGSGDINTEANFACAAPP
B4: the “Proxy for plastic degradation” value was found to be 14.

B5: unnamed (protein)
chain: MQTTVTTMLLASVALAACAGGGSTPLPLPQQQPPQQEPPPPPVPLASRAACEALKDGNGDMVWPNAATVVEVAAWRDAAPATASAAALPEHCEVSGAIAKRTGIDGYPYEIKFRLRMPAEWNGRFFMEGGSGTNGSLSAATGSIGGGQIASALSRNFATIATDGGHDNAVNDNPDALGTVAFGLDPQARLDMGYNSYDQVTQAGKAAVARFYGRAADKSYFIGCSEGGREGMMLSQRFPSHYDGIVAGAPGYQLPKAGISGAWTTQSLAPAAVGLDAQGVPLINKSFSDADLHLLSQAILGTCDALDGLADGIVDNYRACQAAFDPATAANPANGQALQCVGAKTADCLSPVQVTAIKRAMAGPVNSAGTPLYNRWAWDAGMSGLSGTTYNQGWRSWWLGSFNSSANNAQRVSGFSARSWLVDFATPPEPMPMTQVAARMMKFDFDIDPLKIWATSGQFTQSSMDWHGATSTDLAAFRDRGGKMILYHGMSDAAISALDTADYYERLGAAMPGAAGFARLFLVPGMNHCSGGPGTDRFDMLTPLVAWVERGEAPDQISAWSGTPGYFGVAARTRPLCPYPQIARYKGSGDINTEANFACAAPP
As for B5, the “Proxy for plastic degradation” value was found to be 1.3.

B6: unnamed (protein)
chain: MQTTVTTMLLASVALAACAGGGSTPLPLPQQQPPQQEPPPPPVPLASRAACEALKDGNGDMVWPNAATVVEVAAWRDAAPATASAAALPEHCEVSGAIAKRTGIDGYPYEIKFRLRMPAEWNGRFFMEGGSGTNGSLSAATGSIGGGQIASALSRNFATIATDGGHDNAVNDNPDALGTVAFGLDPQARLDMGYNSYDQVTQAGKAAVARFYGRAADKSYFIGWSEGGREGMMLSQRFPSHYDGIVAGAPWDSSTNFDLAAFRDRGGKMILYHGMSDAAFSALDTADYYERLGAAMPGAAGFARLFLVPGMNHSSGGPGTDRFDMLTPLVAWVERGEAPDQISAWSGTPGYFGVAARTRPLCPYPQIARYKGSGDINTEANFACAAPP
In the case of B6, the “Proxy for plastic degradation” value is 0.1.

B7: unnamed (protein)
chain: MQTTVTTMLLASVALAACAGGGSTPLPLPQQQPPQQEPPPPPVPLASRAACEALKDGNGDMVWPNAATVVEVAAWRDAAPATASAAALPEHCEVSGAIAKRTGIDGYPYEIKFRLRMPAEWNGRFFMEGGSGTNGSLSAATGSIGGGQIASALSRNFATIATDGGHDNAVNDNPDALGTVAFGLDPQARLDMGYNSYDQVTQAGKAAVARFYGRAADKSYFIGHSEGGREGMMLSQRFPSHYDGIVAGAPWDSSTNFDLAAFRDRGGKMILYHGMSDAAFSALDTADYYERLGAAMPGAAGFARLFLVPGMNHFSGGPGTDRFDMLTPLVAWVERGEAPDQISAWSGTPGYFGVAARTRPLCPYPQIARYKGSGDINTEANFACAAPP
As to B7, the “Proxy for plastic degradation” value was 0.06.

B8: unnamed (protein)
chain: MQTTVTTMLLASVALAACAGGGSTPLPLPQQQPPQQEPPPPPVPLASRAACEALKDGNGDMVWPNAATVVEVAAWRDAAPATASAAALPEHCEVSGAIAKRTGIDGYPYEIKFRLRMPAEWNGRFFMEGGSGTNGSLSAATGSIGGGQIASALSRNFATIATDGGHDNAVNDNPDALGTVAFGLDPQARLDMGYNSYDQVTQAGKAAVARFYGRAADKSYFIGCSEGGREGMMLSQRFPSHYDGIVAGAPWDSSTNFDLAAFRDRGGKMILYHGMSDAAFSALDTADYYERLGAAMPGAAGFARLFLVPGMNHCSGGPGTDRFDMLTPLVAWVERGEAPDQISAWSGTPGYFGVAARTRPLCPYPQIARYKGSGDINTEANFACAAPP
B8: the “Proxy for plastic degradation” value turned out to be 0.05.

B9: unnamed (protein)
chain: MFVRNADRAKNCMRAPLRVFPLKDTFSAQCANVSVWITSSVPPLRERHMDRRVTRRDLMQTRILLMLIAATGVAACGGDGGSTPAAQNPPLPLASRAACEAFQGNSNSIAWPHRATVVEVATWHEAEPANATAAATPEHCEISGAIARRTGIDGYPYEIKFRLRMPSEWNGRFFMEGGGGTNGSLSAATGSLGGGQTASALSRNFATIATDGGHDNAVNNNPDALGTVAFGMDPQARIDMGYNSYDQVTQAGKAAVAQFYGRAPDKSYFIGCSEGGREGMMLSQRFPSHYDGIVAGAPGYQLPKAGISGAWTTQSLAPAAVGVDAQNVPLINKAFSDVDLHLLSRGILGTCDALDGLSDGIVNDFRACQAAFDPATALNPDTSQPLQCTGAKTPDCLSAAQVTGIKRAMGGPVDSAGAALYNRWAWDPGMSGLNGTSYNQGWRSWWLGSYASSTNNAQRVNGFSARSWLVDFATPPEPMPVTQVAARMMNFNFDTDPPKIRATSGPFTPSSMEWHGATSTNLAAFRDRGGKLMLYHGMSDAAFSALDTADYYERLGAAMPGAAGFARLFLVPGMNHCSGGPGTDRFDMLTPLVAWVERDKAPDQVSAWAGTPGYFGATARTRPLCPYPQIARYKGSGDINAEASFVCVAP
For the protein B9, the “Proxy for plastic degradation” value was 9.5.

B10: unnamed (protein)
chain: MNFPRASRLMQAAVLGGLMAVSAAATAQTNPYARGPNPTAASLEASAGPFTVRSFTVSRPSGYGAGTVYYPTNAGGTVGAIAIVPGYTARQSSIKWWGPRLASHGFVVITIDTNSTLDQPSSRSSQQMAALRQVASLNGTSSSPIYGKVDTARMGVMGWSMGGGGSLISAANNPSLKAAAPQAPGYQLPKAGISGAWTTQSLAPAAVGLDAQGVPLINKSFSDADLHLLSQAILGTCDALDGLADGIVDNYRACQAAFDPATAANPANGQALQCVGAKTADCLSPVQVTAIKRAMAGPVNSAGTPLYNRWAWDAGMSGLSGTTYNQGWRSWWLGSFNSSANNAQRVSGFSARSWLVDFATPPEPMPMTQVAARMMKFDFDIDPLKIWATSGQFTQSSMDWHGATSTSSVTVPTLIFACENDSIAPVNSSALPIYDSMSRNAKQFLEINGGSHSCANSGNSNQALIGKKGVAWMKRFMDNDTRYSTFACENPNSTRVSDFRTANCS
On to B10, for which the “Proxy for plastic degradation” value came to 0.11.
